Results: US20240270821A1, “GIP/GLP1/GCG TRI-RECEPTOR AGONISTS AND USES THEREOF” (priority 2023, published 2024)

T1: human GIP receptor (human) (UniProt P48546)
T1 sequence (looked up): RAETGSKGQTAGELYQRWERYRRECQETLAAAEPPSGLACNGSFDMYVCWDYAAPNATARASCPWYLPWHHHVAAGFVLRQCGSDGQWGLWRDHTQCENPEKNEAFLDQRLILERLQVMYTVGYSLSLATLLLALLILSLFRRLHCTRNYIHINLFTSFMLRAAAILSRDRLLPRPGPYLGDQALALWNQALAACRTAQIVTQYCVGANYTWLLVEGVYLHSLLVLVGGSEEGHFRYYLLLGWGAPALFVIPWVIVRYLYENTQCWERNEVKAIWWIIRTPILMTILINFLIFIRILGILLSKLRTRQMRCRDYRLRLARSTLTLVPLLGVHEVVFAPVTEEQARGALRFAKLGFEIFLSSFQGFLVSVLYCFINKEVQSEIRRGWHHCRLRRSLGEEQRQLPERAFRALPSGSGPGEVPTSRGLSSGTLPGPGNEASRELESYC


How the values were obtained:
Assay in all cases: cell-based or functional assay
[1] = target: T1, human GIP receptor (human)
[2] = target: human glucagon receptor (human) (UniProt P47871)
hGLP-1R = hGLP-1R (Homo sapiens, UniProt P43220)
Chain of hGLP-1R (P43220 24-463): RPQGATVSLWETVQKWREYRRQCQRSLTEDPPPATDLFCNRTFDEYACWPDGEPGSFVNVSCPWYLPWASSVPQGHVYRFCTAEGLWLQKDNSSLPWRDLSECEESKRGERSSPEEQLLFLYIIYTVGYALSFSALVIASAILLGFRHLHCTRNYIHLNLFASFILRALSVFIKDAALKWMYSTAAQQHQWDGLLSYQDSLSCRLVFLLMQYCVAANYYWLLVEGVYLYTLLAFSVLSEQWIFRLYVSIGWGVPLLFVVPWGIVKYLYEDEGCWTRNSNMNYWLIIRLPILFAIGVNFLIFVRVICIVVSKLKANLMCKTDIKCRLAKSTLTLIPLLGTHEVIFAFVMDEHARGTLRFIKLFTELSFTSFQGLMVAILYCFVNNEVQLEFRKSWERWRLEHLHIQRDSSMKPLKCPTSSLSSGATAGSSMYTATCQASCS

Chain of human glucagon receptor (human) (P47871 26-477): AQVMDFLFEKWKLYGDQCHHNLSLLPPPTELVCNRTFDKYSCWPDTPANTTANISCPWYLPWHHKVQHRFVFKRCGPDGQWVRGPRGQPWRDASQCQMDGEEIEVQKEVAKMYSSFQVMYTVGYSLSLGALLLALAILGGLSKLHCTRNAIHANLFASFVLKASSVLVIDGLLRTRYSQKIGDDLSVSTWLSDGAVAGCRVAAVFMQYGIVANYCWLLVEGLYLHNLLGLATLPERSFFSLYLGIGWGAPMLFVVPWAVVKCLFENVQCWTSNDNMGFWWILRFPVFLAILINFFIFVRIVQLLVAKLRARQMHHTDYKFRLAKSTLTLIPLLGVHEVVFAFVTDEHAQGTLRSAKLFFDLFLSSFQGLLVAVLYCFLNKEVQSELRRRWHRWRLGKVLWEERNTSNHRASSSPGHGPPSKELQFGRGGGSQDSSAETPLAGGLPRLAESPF

Binder	Relative cAMP EC50 [1] [nM]	cAMP Rel EC50 (in the presence of 1% HSA) [1] [nM]	Relative cAMP EC50 [2] [nM]	cAMP Rel EC50 (in the presence of 1% HSA) [2] [nM]	Relative cAMP EC50 (hGLP-1R) [nM]	cAMP Rel EC50 (in the presence of 1% HSA) (hGLP-1R) [nM]	cAMP Rel EC50, nM (in the presence of 1% HSA) [1] [nM]	cAMP Rel EC50, nM (in the presence of 1% HSA) [2] [nM]	cAMP Rel EC50, nM (in the presence of 1% HSA) (hGLP-1R) [nM]	cAMP Rel EC50 (1% HSA) [1] [nM]	cAMP Rel EC50 (1% HSA) [2] [nM]	cAMP Rel EC50 (1% HSA) (hGLP-1R) [nM]
YXQGTXTSDXSIXLDKKAQXXFIEYLTEGGPSSGEPPPSGSEE (non-natural residues; Lys acylated C18 diacid; C-terminal amide; synthetic construct; SITE 2: note = 2-Aminoisobutyric Acid; SITE 6: note = alpha-methyl-2-fluoro-L-phenylalanine; SITE 10: note = 3-(4-Pyridyl)-L-alanine; SITE 13: note = alpha-methyl-leucine; SITE 17: note = Lysine is chemically modified through conjugation of the epsilon-amino group of the Lysine) [Example 638]	0.0354	2.39	14	1090	0.4	36	–	–	–	–	–	–
YXQGTFTSDFSXXLDKKAQXAFIEYLLAGGPSSGAPPPSEG (synthetic construct; SITE 2: note = 2-Aminoisobutyric Acid; SITE 12: note = L-ornithine; SITE 13: note = alpha-methyl-leucine; SITE 17: note = Lysine is chemically modified through conjugation of the epsilon-amino group of the Lysine side chain with (2-[2-(2-Amino-ethoxy)-ethoxy]-acetyl)-(gamma-Glu)) [Example 60]	0.135	–	8.96	–	1.93	–	33	1210	409	–	–	–
YXQGTXTSDXSIXLDKKAQXXFIEYLQEGGPSSGEPPPSGSEE (non-natural residues, lipidated Lys, C-terminal amide; synthetic construct; SITE 2: note = 2-Aminoisobutyric Acid; SITE 6: note = alpha-methyl-2-fluoro-L-phenylalanine; SITE 10: note = 3-(4-Pyridyl)-L-alanine; SITE 13: note = alpha-methyl-leucine; SITE 17: note = Lysine is chemically modified through conjugation of the epsilon-amino group of the Lysine) [Example 639]	0.0231	2.04	8	750	0.374	27.9	–	–	–	–	–	–
YXQGTXTSDXSIXLDXKAQXEFIEXLIEGGPSSGAPPPSGS (Aib, αMeF(2F), 4Pal, αMeL, Orn, Me4Pal, αMeY; lipidated Lys; amide; synthetic construct; SITE 2: note = 2-Aminoisobutyric Acid; SITE 6: note = alpha-methyl-2-fluoro-L-phenylalanine; SITE 10: note = 3-(4-Pyridyl)-L-alanine; SITE 13: note = alpha-methyl-leucine; SITE 16: note = L-ornithine; SITE 17: note = Lysine is chemically modified through conjugation of the epsil) [Example 640]	0.00696	0.591	9.5	730	0.288	27.8	–	–	–	–	–	–
YXQGTXTSDXSIXLDXKAQXEFIEXLLEGGPSSGAPPPSGS (non-natural residues; AEEA-γGlu-C18 diacid on Lys; C-terminal amide; synthetic construct; SITE 2: note = 2-Aminoisobutyric Acid; SITE 6: note = alpha-methyl-2-fluoro-L-phenylalanine; SITE 10: note = 3-(4-Pyridyl)-L-alanine; SITE 13: note = alpha-methyl-leucine; SITE 16: note = L-ornithine; SITE 17: note = Lysine is chemically modified through conjugation of the epsil) [Example 641]	0.00819	0.832	3.72	451	0.489	68.3	–	–	–	–	–	–
YXQGTXTSDXSIXLDXKAQXEFIEXLAEGGPSSGAPPPSGS (non-natural residues, lysine acylation, C-terminal amide; synthetic construct; SITE 2: note = 2-Aminoisobutyric Acid; SITE 6: note = alpha-methyl-2-fluoro-L-phenylalanine; SITE 10: note = 3-(4-Pyridyl)-L-alanine; SITE 13: note = alpha-methyl-leucine; SITE 16: note = L-ornithine; SITE 17: note = Lysine is chemically modified through conjugation of the epsil) [Example 642]	0.00796	0.791	3.49	519	0.474	67.1	–	–	–	–	–	–
YXQGTXTSDXSIXLDXKAQXEFIEXLQEGGPSSGAPPPSGS (non-natural residues; acylated Lys; C-terminal amide; synthetic construct; SITE 2: note = 2-Aminoisobutyric Acid; SITE 6: note = alpha-methyl-2-fluoro-L-phenylalanine; SITE 10: note = 3-(4-Pyridyl)-L-alanine; SITE 13: note = alpha-methyl-leucine; SITE 16: note = L-ornithine; SITE 17: note = Lysine is chemically modified through conjugation of the epsil) [Example 643]	0.0223	1.61	16	1170	0.741	60.1	–	–	–	–	–	–
YXQGTXTSDXSIXLDXKAQXEFIEXLIEGGPSSGEPPPSGS (non-natural residues; AEEA-γGlu-C18 diacid acyl; C-terminal amide; synthetic construct; SITE 2: note = 2-Aminoisobutyric Acid; SITE 6: note = alpha-methyl-2-fluoro-L-phenylalanine; SITE 10: note = 3-(4-Pyridyl)-L-alanine; SITE 13: note = alpha-methyl-leucine; SITE 16: note = L-ornithine; SITE 17: note = Lysine is chemically modified through conjugation of the epsil) [Example 644]	0.00649	0.601	5.91	626	0.309	34.3	–	–	–	–	–	–
YXQGTXTSDXSIXLDXKAQXEFIEXLLEGGPSSGEPPPSGS (non-natural residues; lipidated Lys; C-terminal amide; synthetic construct; SITE 2: note = 2-Aminoisobutyric Acid; SITE 6: note = alpha-methyl-2-fluoro-L-phenylalanine; SITE 10: note = 3-(4-Pyridyl)-L-alanine; SITE 13: note = alpha-methyl-leucine; SITE 16: note = L-ornithine; SITE 17: note = Lysine is chemically modified through conjugation of the epsil) [Example 645]	0.00724	0.863	3.25	398	0.596	76.3	–	–	–	–	–	–
YXQGTXTSDXSIXLDXKAQXEFIEXLAEGGPSSGAPPPSGS (acylated lysine (γ-Glu)2 C18 diacid; non-natural residues; C-terminal amide; synthetic construct; SITE 2: note = 2-Aminoisobutyric Acid; SITE 6: note = alpha-methyl-2-fluoro-L-phenylalanine; SITE 10: note = 3-(4-Pyridyl)-L-alanine; SITE 13: note = alpha-methyl-leucine; SITE 16: note = L-ornithine; SITE 17: note = Lysine is chemically modified through conjugation of the epsil) [Example 646]	0.0336	1.09	23.1	1260	2.58	90.5	–	–	–	–	–	–
YXQGTFTSDFSXXLDKKAQXAFIEYLLEXGPSSGAPPPSEG (synthetic construct; SITE 2: note = 2-Aminoisobutyric Acid; SITE 12: note = L-ornithine; SITE 13: note = alpha-methyl-leucine; SITE 17: note = Lysine is chemically modified through conjugation of the epsilon-amino group of the Lysine side chain with (2-[2-(2-Amino-ethoxy)-ethoxy]-acetyl)-(gamma-Glu)) [Example 61]	0.122	–	3.57	–	2.05	–	55.2	1310	704	–	–	–
YXQGTXTSDXSIXLDKKAQXXFIEYLAEGGPSSGEPPPEGSEE (synthetic construct; SITE 2: note = 2-Aminoisobutyric Acid; SITE 6: note = alpha-methyl-2-fluoro-L-phenylalanine; SITE 10: note = 3-(4-Pyridyl)-L-alanine; SITE 13: note = alpha-methyl-leucine; SITE 17: note = Lysine is chemically modified through conjugation of the epsilon-amino group of the Lysine) [Example 650]	–	–	–	–	–	–	–	–	–	3.1	574	31.4
YXQGTXTSDXSIXLDKKAQXXFIEYLSEGGPSSGEPPPEGSEE (synthetic construct; SITE 2: note = 2-Aminoisobutyric Acid; SITE 6: note = alpha-methyl-2-fluoro-L-phenylalanine; SITE 10: note = 3-(4-Pyridyl)-L-alanine; SITE 13: note = alpha-methyl-leucine; SITE 17: note = Lysine is chemically modified through conjugation of the epsilon-amino group of the Lysine) [Example 651]	–	–	–	–	–	–	–	–	–	6.3	639	53.9
YXQGTXTSDXSIXLDKKAQXXFIEYLTEGGPSSGEPPPEGSEE (synthetic construct; SITE 2: note = 2-Aminoisobutyric Acid; SITE 6: note = alpha-methyl-2-fluoro-L-phenylalanine; SITE 10: note = 3-(4-Pyridyl)-L-alanine; SITE 13: note = alpha-methyl-leucine; SITE 17: note = Lysine is chemically modified through conjugation of the epsilon-amino group of the Lysine) [Example 652]	–	–	–	–	–	–	–	–	–	1.92	764	26.8
YXQGTXTSDXSIXLDKKAQXXFIEYLQEGGPSSGEPPPEGSEE (synthetic construct; SITE 2: note = 2-Aminoisobutyric Acid; SITE 6: note = alpha-methyl-2-fluoro-L-phenylalanine; SITE 10: note = 3-(4-Pyridyl)-L-alanine; SITE 13: note = alpha-methyl-leucine; SITE 17: note = Lysine is chemically modified through conjugation of the epsilon-amino group of the Lysine) [Example 653]	–	–	–	–	–	–	–	–	–	1.38	542	25
